In patent publication US6465220:

Assays:
[1] = test system: GalNAc4TAP24 glycopeptide

Sequence of soluble human GalNAc-T4 (pAcGP67-GalNAc-T4506Vsol), amino acid residues 32-578 (chain, as listed by the source): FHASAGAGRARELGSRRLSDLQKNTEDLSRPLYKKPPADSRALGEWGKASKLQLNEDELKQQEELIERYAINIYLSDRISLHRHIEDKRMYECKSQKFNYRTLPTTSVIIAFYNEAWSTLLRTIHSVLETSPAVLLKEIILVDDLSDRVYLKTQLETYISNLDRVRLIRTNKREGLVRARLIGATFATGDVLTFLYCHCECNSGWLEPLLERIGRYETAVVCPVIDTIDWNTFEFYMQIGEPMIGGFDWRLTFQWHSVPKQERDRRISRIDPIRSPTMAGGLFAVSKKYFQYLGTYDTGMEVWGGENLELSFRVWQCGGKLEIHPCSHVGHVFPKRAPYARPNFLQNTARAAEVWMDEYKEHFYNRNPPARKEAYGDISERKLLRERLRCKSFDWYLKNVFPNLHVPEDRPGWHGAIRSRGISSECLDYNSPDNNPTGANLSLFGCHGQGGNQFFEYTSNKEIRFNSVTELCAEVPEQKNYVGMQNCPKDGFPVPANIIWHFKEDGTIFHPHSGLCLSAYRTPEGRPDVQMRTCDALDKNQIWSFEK
Sequence of PSGL-1b peptide (chain, as listed by the source): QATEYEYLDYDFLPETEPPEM
Sequence of soluble recombinant human GalNAc-T2 (pAcGP67-GalNAc-T2-sol) (chain, as listed by the source): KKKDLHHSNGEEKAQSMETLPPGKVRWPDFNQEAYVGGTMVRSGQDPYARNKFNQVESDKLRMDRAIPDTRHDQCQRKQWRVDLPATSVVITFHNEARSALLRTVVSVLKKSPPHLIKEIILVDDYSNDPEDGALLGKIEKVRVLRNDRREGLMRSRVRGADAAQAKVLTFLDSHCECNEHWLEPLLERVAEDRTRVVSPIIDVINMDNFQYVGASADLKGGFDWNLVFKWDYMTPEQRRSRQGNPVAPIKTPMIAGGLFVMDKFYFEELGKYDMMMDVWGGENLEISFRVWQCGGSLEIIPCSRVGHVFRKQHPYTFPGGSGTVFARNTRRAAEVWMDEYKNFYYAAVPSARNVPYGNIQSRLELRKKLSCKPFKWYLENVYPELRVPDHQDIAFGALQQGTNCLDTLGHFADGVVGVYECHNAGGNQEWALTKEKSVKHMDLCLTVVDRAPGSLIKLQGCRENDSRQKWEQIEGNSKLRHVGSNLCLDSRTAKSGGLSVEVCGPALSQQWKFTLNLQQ
Sequence of hCG-β peptide (chain, as listed by the source): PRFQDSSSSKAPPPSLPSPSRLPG
Sequence of full coding human GalNAc-T4 (pVL-GalNAc-T4506Vfull) expressed in Sf9 cells (chain, as listed by the source): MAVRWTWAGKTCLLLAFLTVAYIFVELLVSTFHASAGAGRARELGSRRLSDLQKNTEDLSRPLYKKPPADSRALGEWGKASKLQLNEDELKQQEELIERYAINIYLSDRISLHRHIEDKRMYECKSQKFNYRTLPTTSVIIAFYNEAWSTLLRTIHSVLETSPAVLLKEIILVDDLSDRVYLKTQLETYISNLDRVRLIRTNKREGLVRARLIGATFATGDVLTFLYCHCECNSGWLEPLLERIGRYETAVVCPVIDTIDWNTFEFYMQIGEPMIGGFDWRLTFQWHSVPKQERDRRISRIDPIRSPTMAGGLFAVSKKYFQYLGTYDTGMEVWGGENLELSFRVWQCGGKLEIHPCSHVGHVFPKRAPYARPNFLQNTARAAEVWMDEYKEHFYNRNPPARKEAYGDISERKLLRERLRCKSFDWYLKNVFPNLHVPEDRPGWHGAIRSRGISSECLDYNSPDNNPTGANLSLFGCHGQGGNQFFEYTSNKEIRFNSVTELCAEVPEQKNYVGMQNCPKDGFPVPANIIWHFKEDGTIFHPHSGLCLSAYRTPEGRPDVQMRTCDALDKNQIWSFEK

Substance	GalNAc-transferase activity at 0.06 mM peptide (milliunits/mg) [1]	GalNAc-transferase activity at 0.25 mM peptide (milliunits/mg) [1]	GalNAc-transferase activity at 0.06 mM peptide (milliunits/mg) (TAP24 peptide)	GalNAc-transferase activity at 0.25 mM peptide (milliunits/mg) (TAP24 peptide)	GalNAc-transferase activity at 0.25 mM peptide (milliunits/mg) (Muc1a′ peptide)	GalNAc-transferase activity at 1 mM peptide (milliunits/mg) (Muc1a′ peptide)	GalNAc-transferase activity at 0.25 mM peptide (milliunits/mg) (Muc1b′ peptide)	GalNAc-transferase activity at 1 mM peptide (milliunits/mg) (Muc1b′ peptide)	GalNAc-transferase activity at 0.06 mM peptide (milliunits/mg) (Muc2 peptide)	GalNAc-transferase activity at 0.25 mM peptide (milliunits/mg) (Muc2 peptide)	GalNAc-transferase activity at 0.06 mM peptide (milliunits/mg) (Muc7 peptide)	GalNAc-transferase activity at 0.25 mM peptide (milliunits/mg) (Muc7 peptide)	Km for acceptor substrate (Muc7 peptide) [µM]	Vmax (Muc7 peptide) [nmol/min/µg]	GalNAc-transferase activity at 0.06 mM peptide (milliunits/mg) (PSGL-1b peptide)	GalNAc-transferase activity at 0.25 mM peptide (milliunits/mg) (PSGL-1b peptide)	Km for acceptor substrate (PSGL-1b peptide) [µM]	GalNAc-transferase activity at 0.06 mM peptide (milliunits/mg) (EA2 peptide)	GalNAc-transferase activity at 0.25 mM peptide (milliunits/mg) (EA2 peptide)	Km for acceptor substrate (EA2 peptide) [µM]	other results
full coding human GalNAc-T4 (pVL-GalNAc-T4506Vfull) expressed in Sf9 cells	–	–	–	–	–	–	–	–	–	–	–	–	–	–	–	–	–	–	–	–	GalNAc incorporation by MALDI-TOF of HPLC-purified product [1]: no incorporation was detected
soluble human GalNAc-T4 (pAcGP67-GalNAc-T4506Vsol), amino acid residues 32-578	4.4	7.1	0.8	2.7	2	6.7	0.7	0.9	9	29	21	53	480	0.25	1.2	1.4	20	15	42	2190	Km for acceptor substrate [1]: 90 µM; Vmax [1]: 0.007 nmol/min/µg; Vmax (PSGL-1b peptide): 0.003 nmol/min/µg; Vmax (EA2 peptide): 0.44 nmol/min/µg
soluble recombinant human GalNAc-T2 (pAcGP67-GalNAc-T2-sol)	0	0	73	222	28	83	198	582	169	128	737	396	15	0.64	0.3	0.3	> 2000	152	376	850	GalNAc-transferase activity at 0.06 mM peptide (milliunits/mg) (hCG-β peptide): 22; GalNAc-transferase activity at 0.25 mM peptide (milliunits/mg) (hCG-β peptide): 74; GalNAc-transferase activity (PSGL-1b peptide): exhibited poor activities with both peptide designs; GalNAc-transferase activity (PSGL-1a peptide): exhibited poor activities with both peptide designs; GalNAc-transferase activity at 0.06 mM peptide (milliunits/mg) (PSGL-1a peptide): 0; GalNAc-transferase activity at 0.25 mM peptide (milliunits/mg) (PSGL-1a peptide): 0; Vmax (EA2 peptide): 1.8 nmol/min/µg
